Source: US20240285738A1 (IMMATICS BIOTECHNOLOGIES, published 2024)

biological target: T1, HLA-A*02:01 (human); experiment: UV peptide-exchange ELISA, exchange yield grade
T1 construct: MHC monomer first loaded with a UV-sensitive peptide that is cleaved by UV light and exchanged for the test peptide; captured on streptavidin plates and detected with anti-b2m; also called peptide-receptive MHC molecules; MHC class I
Description: Candidate peptides for T cell based therapies according to the present invention were further tested for their MHC binding capacity (affinity). The individual peptide-MHC complexes were produced by UV-ligand exchange, where a UV-sensitive peptide is cleaved upon UV-irradiation, and exchanged with the peptide of interest as analyzed. Only peptide candidates that can effectively bind and stabilize the peptide-receptive MHC molecules prevent dissociation of the MHC complexes. To determine the yield of the exchange reaction, an ELISA was performed based on the detection of the light chain (B2m) of stabilized MHC complexes. The assay was performed as generally described in Rodenko et al. (Rodenko et al., 2006).
96 well MAXISorp plates (NUNC) were coated over night with 2 μg/ml streptavidin in PBS at room temperature, washed 4× and blocked for 1 h at 37° C. in 2% BSA containing blocking buffer. Refolded HLA-A*02:01/MLA-001 monomers served as standards, covering the range of 15-500 ng/ml. Peptide-MHC monomers of the UV-exchange reaction were diluted 100 fold in blocking buffer. Samples were incubated for 1h at 37° C., washed four times, incubated with 2 μg/ml HRP conjugated anti-β2m for 1h at 37° C., washed again and detected with TMB solution that is stopped with […]. Absorption was measured at 450 nm. Candidate peptides that show a high exchange yield (preferably higher than 50%, most preferred higher than 75%) are generally preferred for a generation and production of antibodies or fragments thereof, and/or T cell receptors or fragments thereof, as they show sufficient avidity to the MHC molecules and prevent dissociation of the MHC complexes.

FILPSSLYL and FIMEGGAMVL cannot be ordered by peptide exchange yield: no less than 75% for the first, 50 to 75% for the second.

LAIVPVNTL was tested, and the peptide exchange yield was 50 to 75%.
